From the nanobody polyreactivity screen of Harvey et al. (2022) come the findings set out here.

A short description of the data set: yeast display, Sf9 membrane polyspecificity reagent, FACS + sequencing; frameworks hold sequencing errors. The method, boiled down: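 In a synthetic yeast display library (Saccharomyces cerevisiae BJ5465), nanobody expression was induced with galactose for 36–48 hours. FACS gates were set low and high (top ~1%) using anti-HA fluorescence for expression and streptavidin fluorescence for binding of the Sf9 membrane reagent. Each polyreactivity label is drawn from the gate of origin.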
On to “QVQLVESGGGLVQAGGSLRLSCAASGSIFTAYTMGWYRQAPGKERELVAAITERGGSTYYADSVKGRFTISRDNAKNTVYLQMNSLKPEDTAVYYCNAVWYFKPPPLYYIPYRQYDYWGQGTQVTVSS”, for which the “polyreactivity (PSR sort gate)” value is “low polyreactivity”.

As to “QVQLVESGGGLVQAGGSLRLSCAASGSIFTDNAMGRYRQAPGKERELVAAITSNGGSTYYADSVKGRFTISRDNAKNTVYLQMNSLKPEDTAVYYCAADSLYREDDYWGQGTQVTVSS”, the “polyreactivity (PSR sort gate)” value is on record as “low polyreactivity”.

Take “QVQLVESGGGLVQAGGSLRLSCAASGSIFTEKAMGWYRQAPGKERELVATITITGSTNYADSVKGRFTISRDNAKNTVYLQLNSLKPEETAVYYCNADLYIAFSASAYDYWGQGTQVTVSS”: the “polyreactivity (PSR sort gate)” value was “low polyreactivity”.

On to “QVQLVESGGGLVQAGGSLRLSCAASGSIFTENAMGWYRQAPGKERELVATITITGSTNYADSVKGRFTISRDNAKNTVYLQMNSLKPEDTAVYYCNADLYIAFSASAYDYWGQGTQVTVSS”, for which the “polyreactivity (PSR sort gate)” value is on record as “low polyreactivity”.

As for “QVQLVESGGGLVQAGGSLRLSCAASGSIFTENAMGWYRQPPGKERELVATITITGSTNYADSVKGRFTISRDNAKKTVYLQMNSLKPADTAVYYCNADLYIAFSASAYDYWGQGTQVTVSS”, the “polyreactivity (PSR sort gate)” value is “low polyreactivity”.

Consider “QVQLVESGGGLVQAGGSLRLSCAASGSIFTEYAMGWYRQAPGKERELVAAISWSGATTYYADSVKGRFTISRDNAKNTVYLQMNSLKPEDTAVYYCAARWANRSYEYWGQGTQVTVSS”, for which the “polyreactivity (PSR sort gate)” value is given as “low polyreactivity”.

Regarding “QVQLVESGGGLVQAGGSLRLSCAASGSIFTEYAMGWYRQAPGKERELVADINSGDITYYADSVKGRFTISRDNAKNTVYLQMNSLKPEDTAVYYCATGWYYTSSTYRSSDFDYWGQGTQVTVSS”, the “polyreactivity (PSR sort gate)” value is given as “low polyreactivity”.

For the sequence “QVQLVESGGGLVQAGGSLRLSCAASGSIFTFYAMGLYRQAPGKERELVAAISYRGGSTYYADSVKGRFTISRDNAKNTVYLQINSLKPEDTAVYYCAAARFPVFIQGYRMEYWGQGTQVTVSS”, the “polyreactivity (PSR sort gate)” value is given as “low polyreactivity”.

In the case of “QVQLVESGGGLVQAGGSLRLSCAASGSIFTFYAMGWYRQAPGKERELVAAISYRGGSTYYADSVKGRFTISRDNAKNTVYLQMNSLKPEDTAVYYCAAARFPVFIQGYRMEYWGQGTQVTVSS”, the “polyreactivity (PSR sort gate)” value is listed as “low polyreactivity”.

On to “QVQLVESGGGLVQAGGSLRLSCAASGSIFTFYAMGWYRQAPGKERELVATITISTGSTYYADSVKGRFTISRDNAKNTVYFQMNSLKPEDTAVYYCNAYISRRGKRGYNYWGQGTQVTVSS”, for which the “polyreactivity (PSR sort gate)” value is “high polyreactivity”.

For “QVQLVESGGGLVQAGGSLRLSCAASGSIFTGNAMGWYREAPGKERELVAAITNGGITNYADSVKRRFTISRDNAMNTVYLQMNSLKPEDTAVYYCAADYVDFYSFRRFDYWGQGTQVTVSS”, the “polyreactivity (PSR sort gate)” value is recorded as “low polyreactivity”.

As to “QVQLVESGGGLVQAGGSLRLSCAASGSIFTGNTMGSDRQAPGKERELVAAISRSGGSTYYADSVKGRFTISRDNAKNTVYLQMNSLKPEDTAVYYCAAYRTHGPPRAIRFDYWGQGTQVTVSS”, the “polyreactivity (PSR sort gate)” value is “high polyreactivity”.

Turning to “QVQLVESGGGLVQAGGSLRLSCAASGSIFTGYAMGWYRQAPGKERELVAAISNSGTSTYYADSVKGRFTISRDNAKNTVYLQMNSLKPEDTAVYYCNTVGHRWLSDDDYWGQGTQVTVSS”, the “polyreactivity (PSR sort gate)” value is recorded as “low polyreactivity”.

For the sequence “QVQLVESGGGLVQAGGSLRLSCAASGSIFTGYAMGWYRQAPGKERELVARITKRGGSTYYADSVKGRFTISRDNAKNTVYLQMNSLKPEDTAVYYCNADRKFPYGSYETHDYWGQGTQVTVSS”, the “polyreactivity (PSR sort gate)” value was “high polyreactivity”.

“QVQLVESGGGLVQAGGSLRLSCAASGSIFTHYAMGWYRPAPGKERELVATISNGDGSTYYADSVKGRFTISRDNAKNTVYLQMNSLKPEDTAVYYCNVDDFSQYADDSWGYEYWGQGTQVTVSS”: the “polyreactivity (PSR sort gate)” value is recorded as “low polyreactivity”.

For “QVQLVESGGGLVQAGGSLRLSCAASGSIFTINAMGWYRQAPGKVRELVAAISWSGAPTYYADSVKGRFTISRDNAKNTVYLQMNSLTPEDTAVYYCATGYNYLDRNTGYVHRFDYWGQGTQVTVSS”, the “polyreactivity (PSR sort gate)” value is “low polyreactivity”.
